Article PMC12318183, “Structure reveals a regulation mechanism of plant outward-rectifying K^+ channel GORK by structural rearrangements in the CNBD–Ankyrin bridge” (Proceedings of the National Academy of Sciences of the …, 2025)

B1: GUARD CELL OUTWARD-RECTIFYING K+ (GORK) channel (natural protein, Arabidopsis thaliana)
chain: GRLRRRQEIIDHEEEESNDDVSSRRGKLSLAETFRWLDSSEHRRIETDGHNDYKYIIHPKNRWYKAWEMFILVWAIYSSLFTPMEFGFFRGLPERLFVLDIVGQIAFLVDIVLQFFVAYRDTQTYRTVYKPTRIAFRYLKSHFLMDFIGCFPWDLIYKASGKHELVRYLLWIRLFRVRKVVEFFQRLEKDTRINYLFTRILKLLFVEVYCTHTAACIFYYLATTLPPENEGYTWIGSLKLGDYSYENFREIDLWKRYTTALYFAIVTMATVGYGDIHAVNLREMIFVMIYVSFDMVLGAYLIGNITALIVKGSNTERFRDKMNDLISFMNRKKLGRDLRSQITGHVRLQYDSHYTDTVMLQDIPASIRAKIAQLLYLPYIKKVPLFKGCSTEFINQIVIRLHEEYFLPGEVITEQGNVVDHLYFVCEGLLEALVTKTDGSEESVTLLGPHTSFGDISIICNISQPFTVRVCELCHLLRLDKQSFSNILEIYFHDGRTILNNIMEEKESNDRIKKLESDIVIHIGKQEAELALKVNSAAFQGDFYQLKSLIRSGADPNKTDYDGRSPLHLAACRGYEDITLFLIQEGVDVNLKDKFGHTPLFEAVKAGQEGVIGLLVKEGASFNLEDSGNFLCTTVAKGDSDFLKRLLSSGMNPNSEDYDHRTPLHVAASEGLFLMAKMLVEAGASVISKDRWGNSPLDEARLCGNKKLIKLLEDVKNAQSSIYPSSLRELQEERIERRKCTVFPFHPQEAKEERSRKHGVVVWIPSNLEKLIVTAAKELGLSDGASFVLLSEDQGRITDIDMISDGHKLYMISDTTDQT
notes: GORK outward-rectifying K+ channel, Arabidopsis thaliana, UniProt Q94A76; optimised synthetic coding DNA; positions counted from the initial Met; the model covers about residues 50-720; No step that removes a tag is described; Solubilised in LMNG/CHS, kept in GDN; also called GORKWT1; GORKWT2

Experiments:
[1] = target: GORK(CA-ANK)_(AKT1) chimeric channel (Arabidopsis thaliana | Arabidopsis)
[2] = target: the molecule itself; assay: cryo-EM structure; single-particle cryo-EM of purified GORK at 4 mg/ml; SEC buffer 0.02% GDN, 150 mM KCl, 20 mM Tris pH 8.0, 2 mM DTT; consensus map and five maps from ANK-focused 3D classification

| Molecule | outward K+ current of GORK(CA-ANK) (AKT1) in Xenopus oocytes with coexpressed CIPK23/CBL1 against without, two-electrode voltage clamp, at 70 mV [1] [fold] | stoichiometry N [2] |
| --- | --- | --- |
| CIPK23/CBL1 protein kinase complex (from UniProt Q93VD3 1-482; O81445 1-213) | 3 |  |
| B1 |  | 4 |
